For assay [1], the target named is T1, Tau(pS422) fragment SEQ ID NO: 03 (human).
T1 sequence (peptide, phosphoserine at position 7 (position 422 of SEQ ID NO, 01)): SIDMVDXPQLATLAD
Kind of assay: ELISA. Background: ELISA stands for enzyme-linked immunosorbent assay.

Assay [2] shares this target. The experiment in a line: SPR capture assay (Example 10), 25 C.

B1: VH00/VL00 (antibody, V domains shown)
VH: QSVEESGGRLVTPGTPLTLTCTVSGFSLSSNAINWVRQAPGKGLEWIGYIAVSGNTYYASWAKGRFTISKASTTVDLKMTSPTAEDTGTYFCGKSNIWGPGTLVTVSL
VL: AQVLTQTTSPVSAAVGSTVTISCQSSQSVRTNKLAWFQQKPGQPPKRLIYSASTLDFGVPSRFSASGSGTQFTLTISDVQCDDAATYYCLGYFDCSIADCVAFGGGTEVVVK
Broadly, the EC50 is the concentration at which the effect is half-maximal. Low values mean higher potency in that assay, high ones lower potency in that assay. The Kd is the equilibrium constant for the complex coming apart. Low readings indicate a tighter complex, high ones a looser complex. For orientation: koff means a measure of how fast the partners let go of each other. A higher koff goes with a short-lived complex. What is called kon is the rate constant with which the complex forms. A high value points to fast association. On to B1, for which the EC50 in assay [1] was determined as 0.04 µg/mL. In assay [2], this molecule showed a Kd of 1.96 nM, a koff of 0.000265 s⁻¹ and an on-rate constant (kon) of 135000 M⁻¹ s⁻¹.

B2: VH76A6/VL145B12 (antibody, V domains shown)
VH: EVQVLESGGGLVQPGGSLRLSCAVSGFSLSNSAINWVRQAPGKGLEWVGYIAVSGNTYYASWAKGRFTISRDNSKNTVYLQMNSLRAEDTAVYYCGKSNIWGQGTLVTVSS
VL: AQVMTQSPSSLSASVGDRVTITCRSSQSVRSNKLAWFQQKPGQPPKRLIYAASNLDFGVPSRFSGSGSGTEFTLTISSLQPEDFATYYCLGYFDSSADIVAFGGGTKVEIK
B2 yielded a half-maximal effective concentration (EC50) in assay [1] of 0.0403 µg/mL. In assay [2], this molecule showed a Kd of 2.61 nM, a dissociation rate constant (koff) of 0.000628 s⁻¹ and a kon of 240000 M⁻¹ s⁻¹.

The record behind these values is patent publication US20180079804A1.
